This data set is described as follows: protein stability index of a GFP-peptide fusion (GPS, HEK-293T) (PSI 1-6); higher = more stable. As to conditions: c terminus: a fixed tail appended.

± gives the standard deviation.
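Note: 24-mer peptide tiles fused after GFP, lentivirally expressed, FACS-sorted into six equal bins by GFP/DsRed ratio, decoded by Illumina sequencing, PSI is the read-weighted mean bin number.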

On to KVLRKAGLSAGYVDAGAEPGRSRM [LPCAT4], for which the protein stability index (treatment: DMSO) turned out to be 3.6 ± 0.31 and the protein stability index (treatment: MLN4924 1 uM, 8 h) was determined as 3.73 ± 0.25.
The corresponding values for KVPSEAPSPMPTHRSYLGPGSTSP [SLC6A17] are 4.66 ± 0.069 and 4.71 ± 0.32.
For KVVQSLLNHGASVNNTTLTNSTPL [FEM1C], the protein stability index reads like this: (treatment: DMSO) 2.77 ± 0.21; (treatment: MLN4924 1 uM, 8 h) 2.83 ± 0.24.
For KWKVGIPSDPLVSIGALISKAHLE [ALDH8A1], the protein stability index runs as follows: (treatment: DMSO) 2.48 ± 0.11; (treatment: MLN4924 1 uM, 8 h) 2.74 ± 0.17.
The corresponding values for KWTACSRSCGGGVTSQERHCLQQR [ADAMTSL2] are 2.75 ± 0.51 and 3.37 ± 0.59.
On to LAGQKDELQLSDLLKQGYNKTLLR [PKD2L1], for which the protein stability index by setting is: (treatment: DMSO) 3.24 ± 0.23; (treatment: MLN4924 1 uM, 8 h) 3.39 ± 0.4.
The corresponding values for LAHAFQPGPGIGGDAHFDEDERWT [MMP1] are 4.73 ± 0.14 and 4.53 ± 0.21.
The corresponding values for LAVGTDLYGQRNSAPEQELLVQDA [GFOD1] are 4.66 ± 0.22 and 4.69 ± 0.36.
For LCKIGSERSLVLDRLASNVAKRKS [IKZF1], in that order: 3.83 ± 0.24 and 3.93 ± 0.28.
As to LCQKQVKAQLPRRESERRNHSLAR [FBXO28], the protein stability index was determined as 3.81 ± 0.14 (treatment: DMSO) and 4.23 ± 0.17 (treatment: MLN4924 1 uM, 8 h).
As for LDEIPDDEDLDLIPPKSVNPTCMC [FAM219A], the protein stability index amounted to 5.07 ± 0.16 (treatment: DMSO) and 5.16 ± 0.31 (treatment: MLN4924 1 uM, 8 h).
LDGALRTFLKAFPLMGETQERERV [PSD2] returned a protein stability index (treatment: DMSO) of 2.96 ± 0.098 and a protein stability index (treatment: MLN4924 1 uM, 8 h) of 2.88 ± 0.25.
The corresponding values for LDGLIQQCGETMKETVNVKTVCGY [GMCL1] are 3.1 ± 0.33 and 3.37 ± 0.36.
LDQLLDMPAAGLAVQLRHAWNPED [SPSB4]: the protein stability index worked out at 3.44 ± 0.28 (treatment: DMSO) and 3.68 ± 0.16 (treatment: MLN4924 1 uM, 8 h).
For LEAGASAASTAAALENLQVEASCS [TRIM39], the protein stability index was 5.36 ± 0.2 (treatment: DMSO) and 5.3 ± 0.37 (treatment: MLN4924 1 uM, 8 h).
For LEEENKERAKREMVMYSITVAFWL [MFF], the protein stability index was determined as 2.29 ± 0.55 (treatment: DMSO) and 2.82 ± 0.46 (treatment: MLN4924 1 uM, 8 h).
The corresponding values for LEELGTLNVFQTVSRMRTQRAFSI [PTPN9] are 2.48 ± 0.12 and 2.23 ± 0.17.
For LEKSNKNFSKKIQQIHVVSQFKIL [VPS39], in that order: 2.17 ± 0.24 and 2.07 ± 0.26.
On to LELVKYLLAAGANVHATTATGDTA [ANKRD17], for which the protein stability index amounted to 2.16 ± 0.25 (treatment: DMSO) and 2.08 ± 0.4 (treatment: MLN4924 1 uM, 8 h).
Regarding LERVRVSCTIIFLASIFQLAMWTT [TMEM175], the protein stability index runs as follows: (treatment: DMSO) 3.24 ± 0.4; (treatment: MLN4924 1 uM, 8 h) 3.29 ± 0.23.
For the sequence LFAFMLVYPKEFHLNRGNHEDHMV [PPEF2], the protein stability index by setting is: (treatment: DMSO) 3.03 ± 1; (treatment: MLN4924 1 uM, 8 h) 2.32 ± 0.35.
The corresponding values for LFGFYFCMPLVCTAIFYTLMTCEM [EDNRA] are 3.11 ± 0.33 and 3.14 ± 0.42.
Consider LFVGVDCFLLTAMAYDQFLAICRP [OR3A1], for which the protein stability index reads like this: (treatment: DMSO) 3.63 ± 0.6; (treatment: MLN4924 1 uM, 8 h) 3.13 ± 0.071.
As to LGAMMLLESPIDPQPLSFKEPPLL [APMAP], the protein stability index reads like this: (treatment: DMSO) 2.41 ± 0.11; (treatment: MLN4924 1 uM, 8 h) 2.5 ± 0.45.
On to LGDTQFCFRFRQSSGRRVSLHCLL [DENND6A], for which the protein stability index is, setting by setting: (treatment: DMSO) 2.89 ± 0.48; (treatment: MLN4924 1 uM, 8 h) 2.65 ± 0.59.
The corresponding values for LGIPKNPWLWSEQQVCQWLLWATN [ETS2] are 2.29 ± 0.3 and 2.33 ± 0.15.
As to LGNVAEVKELRPQLMTSQFISVFS [ZER1], the protein stability index reads like this: (treatment: DMSO) 2.55 ± 0.3; (treatment: MLN4924 1 uM, 8 h) 2.34 ± 0.28.
For LGPQVSLDPMKNVTCENGLPAVVS [LOXL2], in that order: 4.3 ± 0.97 and 4.12 ± 0.25.
Turning to LGRTGLYPSYKVREKIETVKYPTY [FUT8], the protein stability index is, setting by setting: (treatment: DMSO) 2.42 ± 0.12; (treatment: MLN4924 1 uM, 8 h) 2.51 ± 0.14.

Source of the values: the supplement of paper PMC10567573.
